Positions count from the first letter of the chain named.

Sequences and labels used below:
B1: anti-CD84 hybridoma clone 4B11 (antibody, V domains shown)
VH: EVKLVESGGGLVQPGGSLRLSCATSGFTFSDFYMDWVRQPPGKRLEWIATSRNKANDYTTEYSASVRGRFIVSRDTSQSILYLQMNALRAEDTAIYYCARDAVWEPFAYWGQGTLVTVSA
VL: EIVLTQSPTTMAASPGEKITVTCSANSSISSNSLHWYQQKPGFSPKLLIYRTSNLASGVPARFSGSGSGTSYFLTIGTMEAEDVATYYCQQGTSIPRTFGGGTKLEIK
B2: anti-CD84 hybridoma clone 2H7 (antibody, V domains shown)
VH: DVQLQESGPGLVKPSQSLSLTCTVTGYSITSDYAWNWIRQFPGNKLEWMGYISYSGTTSYNPSLKSRISITRDTSKNQFFLQLNSVTTEDTATYYCASLHYYGSRYKKLYAMDYWGQGTLATVSS
VL: NIVMTQSPKSMSMSVGERVTLSCKASDNVGTYVSWYQQKPEQSPKLLIYGASNRYTGVPDRFTGSGSATDFTLTISSVQAEDLADYHCGQSYSYPTFGGGTKLEIK
B3: anti-CD84 hybridoma clone 5C6 (antibody, V domains shown)
VH: QVHLQQSGAELVRPGTSVKISCKASGYTFTNYWLGWVKQRPGHGLEWIGDIFPGGGYINYHEKFKGKATLTADTSSSTAYMQLSSLTSEDSAVYFCGYGNIAMDYWGQGTSVTVSS
VL: QIILTQTPAIMSASPGEKVTMTCSASSSVSYVHWYQQKSGTSPKRWIYDTSKLASGVPARFSGSGSGTSYSLTISTMEAEDAATYYCQQWNNSPRTFGGGTKLEIK
B4: anti-CD84 hybridoma clone 7D2 (antibody, V domains shown)
VH: B3 VH with G97A, I101V
VL: B3 VL with M21V
B5: anti-CD84 hybridoma clone 8A5 (antibody, V domains shown)
VH: QIQLVQSGPELKKPGETVKISCKASGYTFTTYSMHWVKQAPGKGLKWMGWIDTATGEPTYADDFKGRFAFSLETSASTAYLQINNLNNDDTATYFCVKSAYWYFDVWGAGTTVTVSS
VL: DVLMTQTPLSLPVSLGDQASISCRSSQSIVHINGNTYLEWYLQKPGQSPKLLIYKVSNRFSGVPDRFSGSGSGTDFTLKISRVEAEDLGVYYCFQGSHVPWTFGGGTKLEIK
B6: anti-CD84 hybridoma clone 13D11 (antibody, V domains shown)
VH: QVTLKESGPGLLQPSQTLSLTCSFSGFSLNTSNMGVGWIRQPSGKDLEWLAHIWWDDVKRYNPALKSRLTISKDTSNNQVFLKIASVDTADTATYYCARMRGDYTMDYWGQGTSVTVSS
VL: DIVLTQSPASLAVSLGQRATLSCRASQSVSTSLYSYMHWYQQKPGQPPKLLIKYASDLESGVPARFSGSGSGTDFTLHIHPVEEEDTATYYCQHSWEIPYTFGGGTKLEIK

One experiment concerns the target T1, human CD84 on the cell surface (human, UniProt Q9UIB8 22-345).
T1 construct: whole, on cells; also called Cluster of Differentiation 84
T1 sequence (looked up): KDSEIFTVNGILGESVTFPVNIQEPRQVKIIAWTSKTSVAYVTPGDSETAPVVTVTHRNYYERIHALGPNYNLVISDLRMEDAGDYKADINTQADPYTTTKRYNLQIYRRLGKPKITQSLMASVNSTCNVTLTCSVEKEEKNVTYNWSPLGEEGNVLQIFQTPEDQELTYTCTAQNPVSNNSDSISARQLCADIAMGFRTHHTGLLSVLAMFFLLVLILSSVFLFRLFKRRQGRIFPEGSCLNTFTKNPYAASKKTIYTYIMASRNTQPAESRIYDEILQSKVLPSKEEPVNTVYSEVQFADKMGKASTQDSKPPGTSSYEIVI
Put plainly: flow cytometry, control on NS0 cells expressing human CD84.
As for Ctrl, the Geometric Mean is 88.

A further experiment addresses T1, human CD84 on the cell surface. Put plainly: flow cytometry, hybridoma supernatant on NS0 cells expressing human CD84.
Protocol: Hybridoma clones selected from ELISA screening were subjected to flow cytometric analyses with NSO, a mouse myeloma cell line (ECACC), expressing human CD84 via lentiviral transduction. Half a million of transduced cells were incubated with 100 mL of hybridoma culture supernatants on ice for 30 min and washed with cold PBS containing 1% fetal bovine serum and 0.1% sodium azide.
Turning to B1, the “Geometric Mean” value is 1100.

Consider B2, for which the “Geometric Mean” value is 1550. Same read-out and setting: to B3 belongs 1690; to B4, 2260.

Take B5: the “Geometric Mean” value amounted to 1810.

Turning to B6, the “Geometric Mean” value was found to be 2120.

(Values after patent publication US20250353924A1 (CITY OF HOPE, published 2025).)
